{
  "source": "paper PMC3834315",
  "biological_target": "T1, C-terminally hexa-histidine (His6)-tagged VapC10 (toxin, PIN-domain protein, slr1767) of Synechocystis sp. … (Synechocystis sp. PCC 6803, UniProt P73045 1-112)",
  "T1 construct": "also called VapC10-His6; VapC-His6; not shown: His6, C-terminal, kept",
  "T1 sequence (looked up)": "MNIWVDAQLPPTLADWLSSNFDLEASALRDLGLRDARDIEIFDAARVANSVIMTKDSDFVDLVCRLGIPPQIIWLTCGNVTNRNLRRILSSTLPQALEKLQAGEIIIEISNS",
  "test": "pull-down",
  "details": "partners not purified",
  "data": [
    {"binder": "VapB10 (antitoxin, COG2442-domain protein, ssr2962) of Synechocystis sp. PCC 6803 (natural protein, UniProt P73044 1-74, looked up, source: E. coli BL21(DE3)(pJS653), co-expressed with VapC10-His6, in cleared lysate) MNSLLSRITQTPGQCGGRPCIRGMRIRVSDILEMLAENVSTSEILEDFPDLEMADIQACLVFAARRTDFSRLTA", "values": [
      {"measurement": "stoichiometry N", "result": "~1", "unit": "VapB10 per VapC10-His6"}
    ]}
  ]
}
